In the test the target is T1, Full-length MukF (E. coli, UniProt P60293 1-440).
T1 sequence (looked up): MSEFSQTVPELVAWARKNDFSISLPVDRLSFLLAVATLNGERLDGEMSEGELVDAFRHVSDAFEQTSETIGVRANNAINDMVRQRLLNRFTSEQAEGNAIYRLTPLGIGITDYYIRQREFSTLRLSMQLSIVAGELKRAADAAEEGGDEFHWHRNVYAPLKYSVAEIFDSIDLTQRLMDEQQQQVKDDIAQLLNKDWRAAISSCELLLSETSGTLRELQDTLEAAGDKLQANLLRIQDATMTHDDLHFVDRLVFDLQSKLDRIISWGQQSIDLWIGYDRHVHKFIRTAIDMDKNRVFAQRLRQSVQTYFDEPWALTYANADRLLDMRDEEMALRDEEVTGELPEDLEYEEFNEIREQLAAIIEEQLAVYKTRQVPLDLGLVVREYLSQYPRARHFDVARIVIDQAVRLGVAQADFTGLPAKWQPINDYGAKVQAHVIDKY
Description: AUC.

B1: MukE-DRER (MukE-D196A/R198A/E199S/R202S) (natural protein, E. coli, UniProt P22524 10-234, looked up)
chain: MPVKLAQALANPLFPALDSALRSGRHIGLDELDNHAFLMDFQEYLEEFYARYNVELIRAPEGFFYLRPRSTTLIPRSVLSELDMMVGKILCYLYLSPERLANEGIFTQQELYDELLTLADEAKLLKLVNNRSTGSDVDRQKLQEKVRSSLNRLRRLGMVWFMGHDSSKFRITESVFRFGADVRAGDAPASAQSRLIRDGEAMPIENHLQLNDETEENQPDSGEEE
As to B1, the “stoichiometry N” value is 2 MukE per MukF.

The record behind these values is article PMC3482342 (Journal of molecular biology, 2011).
